Laboratory results reported in patent publication US20250327097A1, “ORGANISMS PRODUCING LESS CROTONIC ACID” (Global Bioenergies, priority 2021, published 2025).

B1: I283T-P284D-N285M-E286D-N287T-S322T-N388M-K394R-C430A-L432F-L434W-S436N-G462P-A463P (protein)
chain: MFLKSLREQINLLKRQGDLRIINRPVDSYLEAAAIIRRSTETKAPVPLMTNIKGYPGCSIVGGLAALSSNPEYPLSRVAMSLGLSTTASAQSIVQYLIDGLKKTPYLPVEIDSNSAPCKQNILRGEDASLAHFPIPQVHQHDGNRYVNTWGVFIVESPDGQWCNWSIQRVQYLNDRQMIALVFPSQHISDIWEEWVKIGKPMPYALVQGCEPIVPYIAGLPLLERNVNEAEYIGALYGKGIEVVKCETHDLRVPASSEVVIEGYFAITREGVEGPFGEFAGYTDMDTSLQPILSITAISWQDDPIWPVVAEGKPVDEYHTCTGIGDAAAIQNVLLTANLPVSFVWVPLYSACHLMIVSINRHWRQTHPDLTSEQLTKKVGDVIHQTRMSIKLPRIVVLDDDVDPADTESLLWALATRIHPERKRYFYESAIFPWLNCYSEEERHNRKGKRVIIDALLPENHPPISSFDYAYPDDIKQRVLMHWETDFSHD
B2: I283T-P284D-N285M-N287T-L289R-S322T-N388M-K394R-C430A-L432F-L434W-S436N-G462P-A463P (protein)
chain: MFLKSLREQINLLKRQGDLRIINRPVDSYLEAAAIIRRSTETKAPVPLMTNIKGYPGCSIVGGLAALSSNPEYPLSRVAMSLGLSTTASAQSIVQYLIDGLKKTPYLPVEIDSNSAPCKQNILRGEDASLAHFPIPQVHQHDGNRYVNTWGVFIVESPDGQWCNWSIQRVQYLNDRQMIALVFPSQHISDIWEEWVKIGKPMPYALVQGCEPIVPYIAGLPLLERNVNEAEYIGALYGKGIEVVKCETHDLRVPASSEVVIEGYFAITREGVEGPFGEFAGYTDMETSRQPILSITAISWQDDPIWPVVAEGKPVDEYHTCTGIGDAAAIQNVLLTANLPVSFVWVPLYSACHLMIVSINRHWRQTHPDLTSEQLTKKVGDVIHQTRMSIKLPRIVVLDDDVDPADTESLLWALATRIHPERKRYFYESAIFPWLNCYSEEERHNRKGKRVIIDALLPENHPPISSFDYAYPDDIKQRVLMHWETDFSHD
B3: I283T-P284D-N285M-N287T-S288T-S322T-N388M-K394R-C430A-L432F-L434W-S436N-G462P-A463P (protein)
chain: MFLKSLREQINLLKRQGDLRIINRPVDSYLEAAAIIRRSTETKAPVPLMTNIKGYPGCSIVGGLAALSSNPEYPLSRVAMSLGLSTTASAQSIVQYLIDGLKKTPYLPVEIDSNSAPCKQNILRGEDASLAHFPIPQVHQHDGNRYVNTWGVFIVESPDGQWCNWSIQRVQYLNDRQMIALVFPSQHISDIWEEWVKIGKPMPYALVQGCEPIVPYIAGLPLLERNVNEAEYIGALYGKGIEVVKCETHDLRVPASSEVVIEGYFAITREGVEGPFGEFAGYTDMETTLQPILSITAISWQDDPIWPVVAEGKPVDEYHTCTGIGDAAAIQNVLLTANLPVSFVWVPLYSACHLMIVSINRHWRQTHPDLTSEQLTKKVGDVIHQTRMSIKLPRIVVLDDDVDPADTESLLWALATRIHPERKRYFYESAIFPWLNCYSEEERHNRKGKRVIIDALLPENHPPISSFDYAYPDDIKQRVLMHWETDFSHD
B4: I283T-P284D-N285M-N287T-L289M-S322T-N388M-K394R-C430A-L432F-L434W-S436N-G462P-A463P (protein)
chain: MFLKSLREQINLLKRQGDLRIINRPVDSYLEAAAIIRRSTETKAPVPLMTNIKGYPGCSIVGGLAALSSNPEYPLSRVAMSLGLSTTASAQSIVQYLIDGLKKTPYLPVEIDSNSAPCKQNILRGEDASLAHFPIPQVHQHDGNRYVNTWGVFIVESPDGQWCNWSIQRVQYLNDRQMIALVFPSQHISDIWEEWVKIGKPMPYALVQGCEPIVPYIAGLPLLERNVNEAEYIGALYGKGIEVVKCETHDLRVPASSEVVIEGYFAITREGVEGPFGEFAGYTDMETSMQPILSITAISWQDDPIWPVVAEGKPVDEYHTCTGIGDAAAIQNVLLTANLPVSFVWVPLYSACHLMIVSINRHWRQTHPDLTSEQLTKKVGDVIHQTRMSIKLPRIVVLDDDVDPADTESLLWALATRIHPERKRYFYESAIFPWLNCYSEEERHNRKGKRVIIDALLPENHPPISSFDYAYPDDIKQRVLMHWETDFSHD
B5: I283T-P284D-N285M-N287T-S322T-N388M-K394R-C430T-L432F-L434W-S436N-G462P-A463P (protein)
chain: MFLKSLREQINLLKRQGDLRIINRPVDSYLEAAAIIRRSTETKAPVPLMTNIKGYPGCSIVGGLAALSSNPEYPLSRVAMSLGLSTTASAQSIVQYLIDGLKKTPYLPVEIDSNSAPCKQNILRGEDASLAHFPIPQVHQHDGNRYVNTWGVFIVESPDGQWCNWSIQRVQYLNDRQMIALVFPSQHISDIWEEWVKIGKPMPYALVQGCEPIVPYIAGLPLLERNVNEAEYIGALYGKGIEVVKCETHDLRVPASSEVVIEGYFAITREGVEGPFGEFAGYTDMETSLQPILSITAISWQDDPIWPVVAEGKPVDEYHTCTGIGDAAAIQNVLLTANLPVSFVWVPLYSACHLMIVSINRHWRQTHPDLTSEQLTKKVGDVIHQTRMSIKLPRIVVLDDDVDPADTESLLWALATRIHPERKRYFYESTIFPWLNCYSEEERHNRKGKRVIIDALLPENHPPISSFDYAYPDDIKQRVLMHWETDFSHD
B6: I283T-P284D-N287P-S322T-H384A-N388M-C430N-L432F-L434W-S436N-dG462 (protein)
chain: MFLKSLREQINLLKRQGDLRIINRPVDSYLEAAAIIRRSTETKAPVPLMTNIKGYPGCSIVGGLAALSSNPEYPLSRVAMSLGLSTTASAQSIVQYLIDGLKKTPYLPVEIDSNSAPCKQNILRGEDASLAHFPIPQVHQHDGNRYVNTWGVFIVESPDGQWCNWSIQRVQYLNDRQMIALVFPSQHISDIWEEWVKIGKPMPYALVQGCEPIVPYIAGLPLLERNVNEAEYIGALYGKGIEVVKCETHDLRVPASSEVVIEGYFAITREGVEGPFGEFAGYTDNEPSLQPILSITAISWQDDPIWPVVAEGKPVDEYHTCTGIGDAAAIQNVLLTANLPVSFVWVPLYSACHLMIVSINRHWRQTHPDLTSEQLTKKVGDVIAQTRMSIKLPKIVVLDDDVDPADTESLLWALATRIHPERKRYFYESNIFPWLNCYSEEERHNRKGKRVIIDALLPENHGAISSFDYAYPDDIKQRVLMHWETDFSHD
B7: N388M-K394R-C430N-L432F-L434W-S436N-H444N (protein)
chain: MFLKSLREQINLLKRQGDLRIINRPVDSYLEAAAIIRRSTETKAPVPLMTNIKGYPGCSIVGGLAALSSNPEYPLSRVAMSLGLSTTASAQSIVQYLIDGLKKTPYLPVEIDSNSAPCKQNILRGEDASLAHFPIPQVHQHDGNRYVNTWGVFIVESPDGQWCNWSIQRVQYLNDRQMIALVFPSQHISDIWEEWVKIGKPMPYALVQGCEPIVPYIAGLPLLERNVNEAEYIGALYGKGIEVVKCETHDLRVPASSEVVIEGYFAITREGVEGPFGEFAGYIPNENSLQPILSITAISWQDDPIWPVVAEGKPVDEYHTCSGIGDAAAIQNVLLTANLPVSFVWVPLYSACHLMIVSINRHWRQTHPDLTSEQLTKKVGDVIHQTRMSIKLPRIVVLDDDVDPADTESLLWALATRIHPERKRYFYESNIFPWLNCYSEEERNNRKGKRVIIDALLPENHGAISSFDYAYPDDIKQRVLMHWETDFSHD
B8: I283T-P284D-N287P-S322T-N388M-R422G-C430N-L432F-L434W-S436N-dG462 (protein)
chain: MFLKSLREQINLLKRQGDLRIINRPVDSYLEAAAIIRRSTETKAPVPLMTNIKGYPGCSIVGGLAALSSNPEYPLSRVAMSLGLSTTASAQSIVQYLIDGLKKTPYLPVEIDSNSAPCKQNILRGEDASLAHFPIPQVHQHDGNRYVNTWGVFIVESPDGQWCNWSIQRVQYLNDRQMIALVFPSQHISDIWEEWVKIGKPMPYALVQGCEPIVPYIAGLPLLERNVNEAEYIGALYGKGIEVVKCETHDLRVPASSEVVIEGYFAITREGVEGPFGEFAGYTDNEPSLQPILSITAISWQDDPIWPVVAEGKPVDEYHTCTGIGDAAAIQNVLLTANLPVSFVWVPLYSACHLMIVSINRHWRQTHPDLTSEQLTKKVGDVIHQTRMSIKLPKIVVLDDDVDPADTESLLWALATRIHPEGKRYFYESNIFPWLNCYSEEERHNRKGKRVIIDALLPENHGAISSFDYAYPDDIKQRVLMHWETDFSHD
B9: P25L-I283T-P284D-N287P-S322T-N388M-C430N-L432F-L434W-S436N-dG462 (protein)
chain: MFLKSLREQINLLKRQGDLRIINRLVDSYLEAAAIIRRSTETKAPVPLMTNIKGYPGCSIVGGLAALSSNPEYPLSRVAMSLGLSTTASAQSIVQYLIDGLKKTPYLPVEIDSNSAPCKQNILRGEDASLAHFPIPQVHQHDGNRYVNTWGVFIVESPDGQWCNWSIQRVQYLNDRQMIALVFPSQHISDIWEEWVKIGKPMPYALVQGCEPIVPYIAGLPLLERNVNEAEYIGALYGKGIEVVKCETHDLRVPASSEVVIEGYFAITREGVEGPFGEFAGYTDNEPSLQPILSITAISWQDDPIWPVVAEGKPVDEYHTCTGIGDAAAIQNVLLTANLPVSFVWVPLYSACHLMIVSINRHWRQTHPDLTSEQLTKKVGDVIHQTRMSIKLPKIVVLDDDVDPADTESLLWALATRIHPERKRYFYESNIFPWLNCYSEEERHNRKGKRVIIDALLPENHGAISSFDYAYPDDIKQRVLMHWETDFSHD
B10: I283T-P284D-N285M-N287T-L289Q-S322T-N388M-K394R-C430A-L432F-L434W-S436N-G462P-A463P (protein)
chain: MFLKSLREQINLLKRQGDLRIINRPVDSYLEAAAIIRRSTETKAPVPLMTNIKGYPGCSIVGGLAALSSNPEYPLSRVAMSLGLSTTASAQSIVQYLIDGLKKTPYLPVEIDSNSAPCKQNILRGEDASLAHFPIPQVHQHDGNRYVNTWGVFIVESPDGQWCNWSIQRVQYLNDRQMIALVFPSQHISDIWEEWVKIGKPMPYALVQGCEPIVPYIAGLPLLERNVNEAEYIGALYGKGIEVVKCETHDLRVPASSEVVIEGYFAITREGVEGPFGEFAGYTDMETSQQPILSITAISWQDDPIWPVVAEGKPVDEYHTCTGIGDAAAIQNVLLTANLPVSFVWVPLYSACHLMIVSINRHWRQTHPDLTSEQLTKKVGDVIHQTRMSIKLPRIVVLDDDVDPADTESLLWALATRIHPERKRYFYESAIFPWLNCYSEEERHNRKGKRVIIDALLPENHPPISSFDYAYPDDIKQRVLMHWETDFSHD

The molecules below were run on 3-methylcrotonic acid.
Assay type: biochemical, Yersinia frederiksenii
Parameters: key: “+” representing a low increase in activity; “++++” representing a high increase in activity

Molecule | Activity relative to WT
B1 | ++++
B2 | ++++
B3 | ++++
B4 | ++++
B5 | ++++
B6 | ++++
B7 | +
B8 | ++++
B9 | ++++
B10 | ++++
